Substitutions are numbered along the chain they refer to. In names and notes the source's numbering stands.

The term Kd denotes the equilibrium constant for the complex coming apart. The EC50 is the midpoint of the concentration-response curve. What is called koff is a measure of how fast the partners let go of each other. For orientation: kon means the rate constant with which the complex forms. By IC50 is commonly meant the concentration needed to halve the response being measured.

Test [1] has as its target T1, human CD1a expressed on cells (human, UniProt P06126 17-327). Description: cell-based or functional assay.
In test [2] the target is T1, human CD1a expressed on cells. The test is described as follows: cell-based or functional assay. The source holds these as a separate data set.
Test [3] deals with T2, Human C1q (human, UniProt P02745 23-245; P02746 28-253; P02747 29-245).
T2 construct: Source and form of C1q not described; also called Clq
Description: in vitro human C1q binding assay.

Test [4] has as its target T3, human single-chain CD1a-β2M recombinant protein (Human B2M-CD1a ECD-Avi-His6) (human).
T3 construct: Biotinylated in the HTRF, phage selection and Gyrolab assays; also called human CD1a; CD1a protein
Description: SPR (Biacore), IgG; antigen taken as human CD1a. Background: In SPR one partner is held on a chip, and binding of the other changes the refractive index at the surface.

The target in test [5] is Human CD1b (recombinant; Human B2M-CD1b ECD-His6) (human). Description: ELISA, plates coated with recombinant CD1b, titrated Ab571. (An ELISA detects its analyte on a solid surface through an enzyme-linked reagent.)
In test [6] the target is Human CD1c (recombinant; Human B2M-CD1c ECD-His6) (human). Description: ELISA, plates coated with recombinant CD1c, titrated Ab571.
For test [7], the target named is Human CD1d (recombinant; Human B2M-CD1d ECD-His6) (human). The test is described as follows: ELISA, plates coated with recombinant CD1d, titrated Ab571.
Test [8] deals with T3, human single-chain CD1a-β2M recombinant …. The test is described as follows: ELISA, plates coated with recombinant human CD1a, titrated Ab571.
Test [9] shares this target. Description: Surface Plasmon Resonance (summary table; same experiment as Table 7).
Test [10] has as its target T4, cynomolgus CD1a-β2M recombinant protein (Cyno B2M-CD1a ECD-Avi-His6) (cynomolgus monkey).
T4 construct: also called cyno CD1a; cynomolgus monkey CD1a
T4 chain: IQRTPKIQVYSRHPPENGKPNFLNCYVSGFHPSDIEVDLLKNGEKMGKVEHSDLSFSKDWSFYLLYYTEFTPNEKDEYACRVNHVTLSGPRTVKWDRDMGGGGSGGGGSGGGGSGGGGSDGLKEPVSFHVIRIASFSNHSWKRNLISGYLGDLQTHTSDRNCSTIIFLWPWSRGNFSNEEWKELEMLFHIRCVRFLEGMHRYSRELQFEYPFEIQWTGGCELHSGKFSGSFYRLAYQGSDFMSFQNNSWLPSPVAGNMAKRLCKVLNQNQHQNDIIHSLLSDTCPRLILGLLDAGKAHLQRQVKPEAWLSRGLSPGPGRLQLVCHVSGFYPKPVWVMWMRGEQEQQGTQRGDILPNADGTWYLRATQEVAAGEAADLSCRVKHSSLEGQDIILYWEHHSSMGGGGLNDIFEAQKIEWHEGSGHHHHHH
Described as above.

The target of test [11] is T4, cynomolgus CD1a-β2M recombinant protein …. Description: SPR (Biacore 8K, 37 °C), Ab571 captured by anti-human Fc, cyno CD1a as analyte, 1:1 Langmuir fit.
Test [12] addresses T3, human single-chain CD1a-β2M recombinant …. Description: SPR (Biacore 8K, 37 °C), Ab571 captured by anti-human Fc, human CD1a as analyte, 1:1 Langmuir fit.
Test [13] addresses T1, human CD1a expressed on cells. The test is described as follows: flow cytometry, AF-647-conjugated Ab571 on primary human monocyte-derived dendritic cells; average.
In test [14] the target is T4, cynomolgus CD1a-β2M recombinant protein …. Description: SPR (Biacore 8K, 37 °C), Ab571 captured by anti-human Fc, cyno CD1a as analyte, 1:1 Langmuir fit; mean ± SD, n = 6.
Test [15] addresses T3, human single-chain CD1a-β2M recombinant …. The test is described as follows: SPR (Biacore 8K, 37 °C), Ab571 captured by anti-human Fc, human CD1a as analyte, 1:1 Langmuir fit; mean ± SD, n = 6.
For test [16] the target is unchanged. Description: competition ELISA on plate-coated CD1a protein; competitor: biotinylated parental chimeric Ab40 at a fixed concentration; streptavidin-HRP, OD450.
Target sequence in this assay (chain, as listed by the source limits assumed): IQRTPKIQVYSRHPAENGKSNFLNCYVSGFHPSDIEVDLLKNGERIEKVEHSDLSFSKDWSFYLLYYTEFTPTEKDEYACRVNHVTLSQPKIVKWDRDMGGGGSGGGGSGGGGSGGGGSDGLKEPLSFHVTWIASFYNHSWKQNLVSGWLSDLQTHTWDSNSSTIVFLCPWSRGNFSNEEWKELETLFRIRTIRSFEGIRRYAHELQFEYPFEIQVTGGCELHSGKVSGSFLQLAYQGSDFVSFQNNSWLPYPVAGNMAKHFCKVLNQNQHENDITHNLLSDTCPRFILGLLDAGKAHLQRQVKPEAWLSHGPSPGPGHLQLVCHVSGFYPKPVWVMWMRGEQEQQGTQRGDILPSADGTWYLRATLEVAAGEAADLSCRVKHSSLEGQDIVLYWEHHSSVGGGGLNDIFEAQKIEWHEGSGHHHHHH

T1 sequence (P06126 17-327): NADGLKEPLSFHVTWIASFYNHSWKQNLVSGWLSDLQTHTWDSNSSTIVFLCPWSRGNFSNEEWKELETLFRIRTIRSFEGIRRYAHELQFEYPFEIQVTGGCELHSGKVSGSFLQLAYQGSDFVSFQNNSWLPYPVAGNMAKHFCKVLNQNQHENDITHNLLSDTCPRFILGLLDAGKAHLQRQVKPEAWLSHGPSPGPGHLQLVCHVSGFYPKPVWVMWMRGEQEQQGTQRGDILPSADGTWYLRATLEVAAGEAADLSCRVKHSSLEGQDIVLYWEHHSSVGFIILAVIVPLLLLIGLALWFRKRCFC
T2 sequence (P02745 23-245 limits assumed, chain 1 of 3): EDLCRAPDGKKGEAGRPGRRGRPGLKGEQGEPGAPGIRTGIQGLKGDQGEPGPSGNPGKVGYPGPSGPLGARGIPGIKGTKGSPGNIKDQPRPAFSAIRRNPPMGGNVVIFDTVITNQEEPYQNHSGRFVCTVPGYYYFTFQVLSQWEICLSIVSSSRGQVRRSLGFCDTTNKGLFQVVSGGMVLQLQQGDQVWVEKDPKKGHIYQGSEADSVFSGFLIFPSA
T2 sequence (P02746 28-253 limits assumed, chain 2 of 3): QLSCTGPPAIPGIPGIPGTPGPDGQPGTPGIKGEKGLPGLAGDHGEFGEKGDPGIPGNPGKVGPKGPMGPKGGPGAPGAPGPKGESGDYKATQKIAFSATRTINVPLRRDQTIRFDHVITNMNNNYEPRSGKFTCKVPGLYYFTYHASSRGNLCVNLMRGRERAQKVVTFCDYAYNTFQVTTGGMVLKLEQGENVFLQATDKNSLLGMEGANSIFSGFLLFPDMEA
T2 sequence (P02747 29-245 limits assumed, chain 3 of 3): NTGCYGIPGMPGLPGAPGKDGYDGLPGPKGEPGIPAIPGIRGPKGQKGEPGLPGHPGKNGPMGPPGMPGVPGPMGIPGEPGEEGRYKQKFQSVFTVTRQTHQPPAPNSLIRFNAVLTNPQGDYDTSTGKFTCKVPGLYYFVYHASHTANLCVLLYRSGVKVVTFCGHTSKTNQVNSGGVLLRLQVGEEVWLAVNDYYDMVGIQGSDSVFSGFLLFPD
Human CD1d (recombinant; Human B2M-CD1d ECD-His6) (human), sequence (chain, as listed by the source limits assumed): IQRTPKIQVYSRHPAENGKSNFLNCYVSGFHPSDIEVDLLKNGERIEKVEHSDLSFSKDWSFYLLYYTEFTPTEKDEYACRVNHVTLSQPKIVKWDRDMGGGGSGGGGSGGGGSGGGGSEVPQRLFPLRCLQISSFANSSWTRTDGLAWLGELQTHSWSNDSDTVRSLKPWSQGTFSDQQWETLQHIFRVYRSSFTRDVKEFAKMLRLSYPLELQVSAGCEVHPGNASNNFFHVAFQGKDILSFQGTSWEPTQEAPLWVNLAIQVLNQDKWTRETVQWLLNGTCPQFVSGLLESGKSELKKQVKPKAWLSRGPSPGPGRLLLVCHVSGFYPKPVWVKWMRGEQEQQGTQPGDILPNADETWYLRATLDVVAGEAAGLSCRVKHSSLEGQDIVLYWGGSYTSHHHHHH
Human CD1c (recombinant; Human B2M-CD1c ECD-His6) (human), sequence (chain, as listed by the source limits assumed): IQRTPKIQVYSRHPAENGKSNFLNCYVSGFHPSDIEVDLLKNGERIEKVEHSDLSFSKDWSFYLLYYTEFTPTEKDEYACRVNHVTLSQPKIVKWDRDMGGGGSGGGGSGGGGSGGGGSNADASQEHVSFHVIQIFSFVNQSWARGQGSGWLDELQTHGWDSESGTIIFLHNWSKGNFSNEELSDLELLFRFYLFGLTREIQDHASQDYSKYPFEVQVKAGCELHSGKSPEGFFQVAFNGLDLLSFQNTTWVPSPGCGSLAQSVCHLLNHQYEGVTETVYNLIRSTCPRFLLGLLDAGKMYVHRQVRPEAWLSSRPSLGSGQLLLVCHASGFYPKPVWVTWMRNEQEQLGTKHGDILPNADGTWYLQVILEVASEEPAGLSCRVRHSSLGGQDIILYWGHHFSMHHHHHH
Human CD1b (recombinant; Human B2M-CD1b ECD-His6) (human), sequence (chain, as listed by the source limits assumed): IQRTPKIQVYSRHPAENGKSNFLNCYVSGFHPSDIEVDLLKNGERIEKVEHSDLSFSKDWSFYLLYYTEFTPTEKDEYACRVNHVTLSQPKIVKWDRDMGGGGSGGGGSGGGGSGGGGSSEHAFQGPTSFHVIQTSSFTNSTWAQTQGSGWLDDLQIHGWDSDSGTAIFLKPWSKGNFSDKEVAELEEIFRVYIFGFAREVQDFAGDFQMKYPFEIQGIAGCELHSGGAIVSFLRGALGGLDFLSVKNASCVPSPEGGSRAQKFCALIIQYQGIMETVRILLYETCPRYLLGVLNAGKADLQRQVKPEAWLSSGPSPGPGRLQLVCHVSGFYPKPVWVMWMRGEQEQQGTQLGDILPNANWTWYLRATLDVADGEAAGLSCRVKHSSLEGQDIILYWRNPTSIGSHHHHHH

B1: Ab571 (antibody, human IgG1, kappa)
heavy: EVQLVESGGGLVQPGGSLRLSCAASGFTFTDHYMTWVRQAPGKGLEWVAFIRNKAGGYTTESNPAVKGRFTISRDNAKNSLYLQMNSLRAEDTAVYYCARETTGIPTGWFAYWGQGTLVTVSSASTKGPSVFPLAPSSKSTSGGTAALGCLVKDYFPEPVTVSWNSGALTSGVHTFPAVLQSSGLYSLSSVVTVPSSSLGTQTYICNVNHKPSNTKVDKKVEPKSCDKTHTCPPCPAPEAAGAPSVFLFPPKPKDTLMISRTPEVTCVVVDVSHEDPEVKFNWYVDGVEVHNAKTKPREEQYNSTYRVVSVLTVLHQDWLNGKEYKCKVSNKALPAPIEKTISKAKGQPREPQVYTLPPSREEMTKNQVSLTCLVKGFYPSDIAVEWESNGQPENNYKTTPPVLDSDGSFFLYSKLTVDKSRWQQGNVFSCSVMHEALHNHYTQKSLSLSPGK
light: DIQMTQSPSSLSASVGDRVTITCLASEDIYFDLAWYQQKPGKAPKLLIYGGDRLKEGVPSRFSGSGSGTDYTLTISSLQPEDFATYYCQQSYSYPYTFGQGTKLEIKRTVAAPSVFIFPPSDEQLKSGTASVVCLLNNFYPREAKVQWKVDNALQSGNSQESVTEQDSKDSTYSLSSTLTLSKADYEKHKVYACEVTHQGLSSPVTKSFNRGEC
notes: Lead optimized variant of Ab138; human IgG1 effector null / kappa; HC with or without terminal lysine; Used AF-647- or FITC-conjugated in the dendritic cell flow cytometry assays; also called FITC-Ab571; AF-647-conjugated Ab571
As to B1, in [1], the “Inhibition of CD69 expression, IC50” value was determined as 1.11 nM. In test [2], the “Human Jurkat T cell Activation: IC50 CD69 Expression” value worked out at 0.894 nM. Moreover, in test [2], the “Human Jurkat T cell Activation: IC50 IL-2” value was 0.268 nM. Further, the binding result is “no binding (tested: Up to 30 µg/mL (C1q))” in test [3], “no binding” in [5], “no binding” in test [6] and “no binding” in test [7]. For the same molecule, the Kd in test [4] worked out at 0.17 nM; in test [9] it was 0.181 nM; in [10], 0.06 nM; in [14], 0.0604 nM; in test [15] it was 0.181 nM. Moreover, the EC50 in [8] was found to be 0.00652 nM; in test [13] it was 7.83 nM. In addition, the results for the dissociation rate constant (koff) in test [11] and in [12] were 9.8e-05 s⁻¹ and 0.000228 s⁻¹, respectively. Besides, the association rate constant (kon) was 1.64e+06 M⁻¹ s⁻¹ in [11] and 1.26e+06 M⁻¹ s⁻¹ in test [12].

B2: Ab673 (antibody, human IgG1, kappa, V domains shown)
VH: EVQLVESGGGLVQPGGSLRLSCAASGFTFTDHYMHWVRQAPGKGLEWVAHTRDKAGGYTTESNPAVKGRFTISRDNAKNSLYLQMNSLRAEDTAVYYCARETTRIPTGWFAYWGQGTLVTVSS
VL: DIQMTQSPSSLSASVGDRVTITCLASEDIYFDLAWYQQKPGKAPKLLIYGGDRLKEGVPSRFSGSGSGTDYTLTISSLQPEDFATYYCQQSYSYPYTFGQGTKLEIKR
notes: Optimized variant of Ab138; human IgG1 effector null / kappa; HC with or without terminal lysine
Consider B2, for which, in test [1], the “Inhibition of CD69 expression, IC50” value stood at 0.3 nM and the “Inhibition of IL-2 production, IC50” value was determined as 0.18 nM. Further, the Kd in [4] came to 0.21 nM.

B3: Ab660 (antibody, human IgG1, kappa, V domains shown)
VH: B2 VH with A49G, T51I, D53N, K54A
VL: B2 VL with G51A, D52S, R53T, L54P, E56D, Y92E, S93K
notes: as for B2
With B3, in test [1], the “Inhibition of CD69 expression, IC50” value worked out at 0.33 nM and the “Inhibition of IL-2 production, IC50” value was 0.15 nM. In addition, the Kd in test [4] was determined as 0.57 nM.

B4: Ab657 (antibody, human IgG1, kappa, V domains shown)
VH: B2 VH
VL: B2 VL with G51A, D52S, R53T, L54P, E56D, Y92E, S93K
notes: as for B2
Turning to B4, in test [1], the “Inhibition of CD69 expression, IC50” value is 0.51 nM and the “Inhibition of IL-2 production, IC50” value stood at 0.19 nM. The Kd in [4] was found to be 0.41 nM.

B5: Ab681 (antibody, human IgG1, kappa, V domains shown)
VH: B2 VH
VL: B2 VL with K55Q, Y92E
notes: as for B2
As for B5, in test [1], the “Inhibition of CD69 expression, IC50” value worked out at 0.42 nM and the “Inhibition of IL-2 production, IC50” value was determined as 0.12 nM. The Kd in test [4] is 1.22 nM.

B6: Ab689 (antibody, human IgG1, kappa, V domains shown)
VH: B2 VH
VL: B2 VL with K55Q
notes: as for B2
Consider B6, for which, in test [1], the “Inhibition of CD69 expression, IC50” value amounted to 0.41 nM and the “Inhibition of IL-2 production, IC50” value amounted to 0.17 nM. Besides, in [4], the Kd was determined as 3.59 nM.

B7: Ab138 (antibody, human IgG1, kappa, V domains shown)
VH: B2 VH with H32F, H35N, H50F, T51I, D53N, G56N, A65S, R104G
VL: B2 VL with Y30S, F31N, G51A, D52N, E56D, S93K
notes: Humanized variant of chimeric Ab40; human IgG1 (L234A/L235A/G237A, effector function null) / human kappa; heavy chain can be prepared with or without the terminal lysine; Tb-labeled in the HTRF assay; also called humanized anti-CD1a antibody Ab138; parental Ab138
B7: in [1], the “Inhibition of CD69 expression, IC50” value was 1.97 nM. Further, the Kd in [4] was determined as 3.87 nM. In addition, the IC50 in test [16] worked out at 1.94 nM.

For the origin of these results see patent US20220112291A1 (Pfizer, published 2022).
